Measurements taken from article PMC9654457.

Columns and labels:
Test in all cases: two-hybrid; pairwise split-ubiquitin yeast two-hybrid of four baits (slToc159-1AGM, -1GM, -2AGM, -2GM) with isolated prey vectors in NMY51; qualitative PXG assay and quantitative β-galactosidase activity in 96-well plates, 60 min, mean of three experiments
[1] = biological target: slToc159-2AGM bait protein (tomato (Solanum lycopersicum))
[2] = biological target: slToc159-2GM bait protein (tomato (Solanum lycopersicum))
[3] = biological target: slToc159-1GM bait protein (tomato (Solanum lycopersicum))
[4] = biological target: slToc159-1AGM bait protein (tomato (Solanum lycopersicum))

Substance | increase in interaction strength (β-galactosidase activity) against slToc159-2GM [1] [%] | decrease in interaction strength (β-galactosidase activity) against slToc159-1AGM [3] [%] | also measured
Hop-interacting protein (THI026) (natural protein) | 152 |  | 
Photosystem II 23 kDa protein (natural protein) |  | 88.7 | decrease in affinity (β-galactosidase activity) against Toc159-2AGM [2]: 89.2%
Photosystem I reaction center subunit II (natural protein) |  | 62 | increase in interaction strength (β-galactosidase activity) against slToc159-2AGM [2]: 57.8%
Cell division protein FtsZ (natural protein) |  |  | relative increase in interaction strength (β-galactosidase activity) against slToc159-1GM [4]: 66.1%
photosystem II subunit S (natural protein) |  | 76.6 | 
thiamine biosynthesis protein (ThiC) (natural protein) | 81.6 |  | relative increase in interaction strength (β-galactosidase activity) against slToc159-1GM [4]: 476%
Photosystem I reaction center subunit III (natural protein) |  | 46.3 | decrease in affinity (β-galactosidase activity) against Toc159-2AGM [2]: 86%
Chlorophyll a-b binding protein 7 (natural protein) |  | 65.4 | increase in interaction strength (β-galactosidase activity) against slToc159-2AGM [2]: 21.7%
Glutamine synthetase (natural protein) |  |  | relative increase in interaction strength (β-galactosidase activity) against slToc159-1GM [4]: 28.8%
Chlorophyll a/b binding protein Cab-3C (natural protein) |  | 38.4 | increase in interaction strength (β-galactosidase activity) against slToc159-2AGM [2]: 1360%
Chlorophyll a-b binding protein CP24 (natural protein) |  |  | decrease in affinity (β-galactosidase activity) against Toc159-2AGM [2]: 75.5%
Serine hydroxymethyl transferase (natural protein) | 889 |  | 
Stearoyl-[acyl-carrier-protein] 9-desaturase (natural protein) | 81.1 |  | relative increase in interaction strength (β-galactosidase activity) against slToc159-1GM [4]: 866%
RuBisCO small subunit 3 (natural protein) |  | 24.5 | decrease in affinity (β-galactosidase activity) against Toc159-2AGM [2]: 37.1%
RuBisCO small subunit 2A (natural protein) |  | 62.4 | increase in interaction strength (β-galactosidase activity) against slToc159-2AGM [2]: 615%
Chlorophyll a-b binding protein (CAB11) (natural protein) |  | 20.7 | 
Photosystem I reaction center subunit IV A (natural protein) |  |  | decrease in affinity (β-galactosidase activity) against Toc159-2AGM [2]: 53.7%
Chlorophyll a-b binding protein 8 (natural protein) |  | 49.2 | 
Photosystem I subunit O (natural protein) |  | 93.8 | decrease in affinity (β-galactosidase activity) against Toc159-2AGM [2]: 72.7%
SufE-like protein 1 (natural protein) | 509 |  | 
RuBisCO small subunit 1 (natural protein) |  |  | increase in interaction strength (β-galactosidase activity) against slToc159-2AGM [2]: 79.9%
3-oxoacyl-[acyl-carrier-protein] reductase (natural protein) | 61.7 |  | 
Heat shock cognate 70 kDa protein (natural protein) | 406 |  | 
